Measured values reported in patent US10087225B2, “Formulation of MK2 inhibitor peptides” (MOERAE MATRIX, INC., priority 2015, dated 2018).

Tests used:
[1] = biological target: MKK7β(h) (Homo sapiens, UniProt O14733); experiment: Kinase Profiling Assay; assay type: biochemical
[2] = Cytotoxicity assay (CytoTox-ONE); settings: human, HCAVSMCs
Protocol: 200 μL of cell suspension (at 10,000 cells/well) were seeded onto 96-well plates to yield an approximate 70% confluence per well. Cells were allowed to adhere to the plate overnight. […] Treatments were subsequently removed and the cells were cultured in fresh complete growth medium for 24 hours. Cells were then washed 2× with PBS +/+ and cell viability was then determined by a CytoTox-ONE Homogenous Membrane Integrity assay (Promega) according to the manufacturer's protocol. Briefly, 100 μL of Ambion KDalert Lysis Buffer was added to each well, and then 100 μL of freshly prepared CytoTox-ONE reagent was added to each well. After 10 minutes of incubation, 50 μL of stop solution was added, and the fluorescence of each well (kλex=560 nm, λem, =590 nm) was determined with a TECAN Infinite M1000 Pro plate reader.

[3] = biological target: Ab1(h) (Homo sapiens, UniProt P00519); experiment: Kinase Profiling Assay; assay type: biochemical; settings: 100 μM
[4] = biological target: Ab1(M351T)(h) (Homo sapiens, UniProt P00519, M351T); experiment: Kinase Profiling Assay; assay type: biochemical; settings: 100 μM
[5] = biological target: T1, EphA1(h) (Homo sapiens, UniProt P21709); experiment: Kinase Profiling Assay; assay type: biochemical; settings: 100 μM
T1 sequence (P21709 26-976): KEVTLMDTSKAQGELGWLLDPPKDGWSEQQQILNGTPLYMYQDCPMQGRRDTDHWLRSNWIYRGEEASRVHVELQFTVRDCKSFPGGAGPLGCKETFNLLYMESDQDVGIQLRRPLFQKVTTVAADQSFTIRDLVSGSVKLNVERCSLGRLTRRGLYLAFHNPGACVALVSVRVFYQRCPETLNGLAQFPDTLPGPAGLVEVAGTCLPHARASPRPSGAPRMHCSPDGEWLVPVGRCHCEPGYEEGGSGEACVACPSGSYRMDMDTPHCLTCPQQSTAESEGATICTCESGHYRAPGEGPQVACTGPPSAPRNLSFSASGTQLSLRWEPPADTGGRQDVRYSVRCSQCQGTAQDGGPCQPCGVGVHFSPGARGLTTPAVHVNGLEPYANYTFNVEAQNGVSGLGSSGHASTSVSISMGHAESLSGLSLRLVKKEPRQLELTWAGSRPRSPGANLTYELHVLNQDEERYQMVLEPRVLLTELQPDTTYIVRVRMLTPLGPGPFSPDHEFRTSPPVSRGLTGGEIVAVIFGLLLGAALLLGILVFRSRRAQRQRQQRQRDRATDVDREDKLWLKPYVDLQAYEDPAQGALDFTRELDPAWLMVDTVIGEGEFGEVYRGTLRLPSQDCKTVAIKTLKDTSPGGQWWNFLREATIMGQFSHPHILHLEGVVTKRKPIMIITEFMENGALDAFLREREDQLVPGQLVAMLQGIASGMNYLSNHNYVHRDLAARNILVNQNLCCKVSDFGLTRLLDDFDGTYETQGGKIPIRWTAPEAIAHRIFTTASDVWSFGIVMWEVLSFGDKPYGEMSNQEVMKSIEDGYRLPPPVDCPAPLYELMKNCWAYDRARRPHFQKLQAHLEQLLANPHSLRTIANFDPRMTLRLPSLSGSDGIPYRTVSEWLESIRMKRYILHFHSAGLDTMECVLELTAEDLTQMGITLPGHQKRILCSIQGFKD

[6] = biological target: T2, EphA3(h) (Homo sapiens, UniProt P29320); experiment: Kinase Profiling Assay; assay type: biochemical; settings: 100 μM
T2 sequence (P29320 21-983): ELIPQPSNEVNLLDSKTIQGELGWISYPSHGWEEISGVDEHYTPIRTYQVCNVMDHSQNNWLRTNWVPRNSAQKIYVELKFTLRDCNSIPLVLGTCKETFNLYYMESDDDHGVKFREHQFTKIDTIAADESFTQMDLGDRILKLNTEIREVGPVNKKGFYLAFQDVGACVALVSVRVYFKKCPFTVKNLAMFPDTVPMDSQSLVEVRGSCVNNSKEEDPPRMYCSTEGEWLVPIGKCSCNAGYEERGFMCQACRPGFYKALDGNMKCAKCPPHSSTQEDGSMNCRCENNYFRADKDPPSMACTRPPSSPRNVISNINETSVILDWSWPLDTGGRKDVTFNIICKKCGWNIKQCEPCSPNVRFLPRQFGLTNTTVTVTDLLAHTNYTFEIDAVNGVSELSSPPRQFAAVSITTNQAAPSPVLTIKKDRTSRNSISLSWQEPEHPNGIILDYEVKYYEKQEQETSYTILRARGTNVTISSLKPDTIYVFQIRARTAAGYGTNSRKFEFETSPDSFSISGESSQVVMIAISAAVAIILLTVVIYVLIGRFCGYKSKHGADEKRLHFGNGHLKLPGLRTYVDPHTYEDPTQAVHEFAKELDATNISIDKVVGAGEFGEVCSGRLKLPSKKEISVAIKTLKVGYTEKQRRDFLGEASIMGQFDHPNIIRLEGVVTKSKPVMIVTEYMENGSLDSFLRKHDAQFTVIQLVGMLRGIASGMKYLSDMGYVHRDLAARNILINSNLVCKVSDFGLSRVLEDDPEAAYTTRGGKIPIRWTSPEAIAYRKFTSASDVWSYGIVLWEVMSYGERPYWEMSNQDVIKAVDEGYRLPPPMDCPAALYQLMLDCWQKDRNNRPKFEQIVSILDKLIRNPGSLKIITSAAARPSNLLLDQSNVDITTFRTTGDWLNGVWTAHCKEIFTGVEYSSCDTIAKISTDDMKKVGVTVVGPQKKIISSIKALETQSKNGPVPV

[7] = biological target: Lck(h) (Homo sapiens, UniProt P06239); experiment: Kinase Profiling Assay; assay type: biochemical; settings: 100 μM
Sequence of Lck(h) (P06239 whole entry): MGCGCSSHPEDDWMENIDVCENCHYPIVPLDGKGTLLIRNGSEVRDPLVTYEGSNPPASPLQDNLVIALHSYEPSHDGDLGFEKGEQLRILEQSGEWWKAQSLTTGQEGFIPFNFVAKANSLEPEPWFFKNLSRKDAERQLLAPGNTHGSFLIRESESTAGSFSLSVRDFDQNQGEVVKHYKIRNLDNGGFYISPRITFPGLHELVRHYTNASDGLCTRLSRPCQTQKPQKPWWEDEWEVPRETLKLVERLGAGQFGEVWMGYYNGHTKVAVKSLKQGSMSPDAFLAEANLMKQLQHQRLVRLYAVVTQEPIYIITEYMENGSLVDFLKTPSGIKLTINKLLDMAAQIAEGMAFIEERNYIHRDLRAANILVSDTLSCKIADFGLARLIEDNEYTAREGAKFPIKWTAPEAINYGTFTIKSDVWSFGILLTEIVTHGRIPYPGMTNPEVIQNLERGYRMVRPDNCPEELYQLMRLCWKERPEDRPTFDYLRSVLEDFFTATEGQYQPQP

[8] = biological target: MAPK2(h) (Homo sapiens, UniProt P28482); experiment: Kinase Profiling Assay; assay type: biochemical; settings: 100 μM
Sequence of MAPK2(h) (P28482 whole entry): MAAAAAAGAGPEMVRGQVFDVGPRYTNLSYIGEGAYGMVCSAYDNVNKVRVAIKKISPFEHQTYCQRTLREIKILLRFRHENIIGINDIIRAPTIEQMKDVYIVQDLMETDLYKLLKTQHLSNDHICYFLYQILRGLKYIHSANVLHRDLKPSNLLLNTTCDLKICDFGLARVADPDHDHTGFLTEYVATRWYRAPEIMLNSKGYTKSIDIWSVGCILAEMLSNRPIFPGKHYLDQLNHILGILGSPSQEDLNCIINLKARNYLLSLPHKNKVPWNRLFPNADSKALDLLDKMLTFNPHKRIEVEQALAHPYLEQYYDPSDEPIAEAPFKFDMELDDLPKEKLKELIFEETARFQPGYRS

[9] = biological target: MARK1(h) (Homo sapiens, UniProt Q9P0L2); experiment: Kinase Profiling Assay; assay type: biochemical; settings: 100 μM
Sequence of MARK1(h) (Q9P0L2 whole entry): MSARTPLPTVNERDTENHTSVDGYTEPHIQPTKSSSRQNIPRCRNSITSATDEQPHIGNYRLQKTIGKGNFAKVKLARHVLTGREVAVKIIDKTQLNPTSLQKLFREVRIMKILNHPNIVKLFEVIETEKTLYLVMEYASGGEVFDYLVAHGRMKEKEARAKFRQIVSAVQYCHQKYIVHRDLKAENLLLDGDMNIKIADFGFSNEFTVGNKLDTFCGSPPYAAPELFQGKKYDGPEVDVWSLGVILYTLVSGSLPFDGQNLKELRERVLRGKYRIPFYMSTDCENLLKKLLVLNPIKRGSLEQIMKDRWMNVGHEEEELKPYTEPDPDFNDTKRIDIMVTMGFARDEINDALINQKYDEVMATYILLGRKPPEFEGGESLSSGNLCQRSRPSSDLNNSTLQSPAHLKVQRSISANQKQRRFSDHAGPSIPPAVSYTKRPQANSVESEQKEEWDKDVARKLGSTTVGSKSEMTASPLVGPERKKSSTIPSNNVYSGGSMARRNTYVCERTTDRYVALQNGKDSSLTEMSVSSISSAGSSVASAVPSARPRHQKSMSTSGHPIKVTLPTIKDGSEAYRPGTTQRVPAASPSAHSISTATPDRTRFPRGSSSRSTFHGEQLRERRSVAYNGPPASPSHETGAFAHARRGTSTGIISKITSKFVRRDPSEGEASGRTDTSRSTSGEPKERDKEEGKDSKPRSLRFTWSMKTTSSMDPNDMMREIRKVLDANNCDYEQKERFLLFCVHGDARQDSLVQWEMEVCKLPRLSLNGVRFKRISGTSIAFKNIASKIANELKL

[10] = biological target: Plk3(h) (Homo sapiens, UniProt Q9H4B4); experiment: Kinase Profiling Assay; assay type: biochemical; settings: 100 μM
Sequence of Plk3(h) (Q9H4B4 whole entry): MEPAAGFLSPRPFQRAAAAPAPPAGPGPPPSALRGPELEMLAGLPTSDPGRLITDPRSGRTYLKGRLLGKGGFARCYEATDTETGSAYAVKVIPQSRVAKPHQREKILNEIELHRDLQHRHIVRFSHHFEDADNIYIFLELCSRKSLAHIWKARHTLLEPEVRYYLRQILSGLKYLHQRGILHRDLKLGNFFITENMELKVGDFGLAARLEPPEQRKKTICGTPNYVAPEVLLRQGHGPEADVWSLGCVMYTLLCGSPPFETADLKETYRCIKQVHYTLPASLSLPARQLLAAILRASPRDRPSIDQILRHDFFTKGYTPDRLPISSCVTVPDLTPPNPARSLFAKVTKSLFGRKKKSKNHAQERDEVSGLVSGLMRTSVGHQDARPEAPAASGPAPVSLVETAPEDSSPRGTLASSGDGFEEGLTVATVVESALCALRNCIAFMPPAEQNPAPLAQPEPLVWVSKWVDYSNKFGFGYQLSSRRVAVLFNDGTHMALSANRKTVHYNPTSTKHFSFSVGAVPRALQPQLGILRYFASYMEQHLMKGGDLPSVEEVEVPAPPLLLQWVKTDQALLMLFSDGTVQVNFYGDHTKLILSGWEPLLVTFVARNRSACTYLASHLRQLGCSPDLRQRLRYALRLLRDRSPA

[11] = biological target: T3, SAPK4(h) (Homo sapiens, UniProt O15264); experiment: Kinase Profiling Assay; assay type: biochemical; settings: 100 μM
T3 sequence (O15264 1-365): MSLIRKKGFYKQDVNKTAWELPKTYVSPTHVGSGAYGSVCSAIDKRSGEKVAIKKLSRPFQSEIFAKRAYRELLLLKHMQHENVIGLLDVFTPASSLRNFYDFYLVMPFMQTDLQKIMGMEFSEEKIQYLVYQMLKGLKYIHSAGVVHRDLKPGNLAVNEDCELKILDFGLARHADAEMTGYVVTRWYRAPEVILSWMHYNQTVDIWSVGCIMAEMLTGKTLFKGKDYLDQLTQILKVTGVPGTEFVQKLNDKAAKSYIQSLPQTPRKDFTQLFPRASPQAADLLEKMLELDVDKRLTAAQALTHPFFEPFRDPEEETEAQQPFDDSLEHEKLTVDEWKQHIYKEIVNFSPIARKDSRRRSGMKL

[12] = biological target: SIK(h) (Homo sapiens, UniProt P57059); experiment: Kinase Profiling Assay; assay type: biochemical; settings: 100 μM
Sequence of SIK(h) (P57059 whole entry): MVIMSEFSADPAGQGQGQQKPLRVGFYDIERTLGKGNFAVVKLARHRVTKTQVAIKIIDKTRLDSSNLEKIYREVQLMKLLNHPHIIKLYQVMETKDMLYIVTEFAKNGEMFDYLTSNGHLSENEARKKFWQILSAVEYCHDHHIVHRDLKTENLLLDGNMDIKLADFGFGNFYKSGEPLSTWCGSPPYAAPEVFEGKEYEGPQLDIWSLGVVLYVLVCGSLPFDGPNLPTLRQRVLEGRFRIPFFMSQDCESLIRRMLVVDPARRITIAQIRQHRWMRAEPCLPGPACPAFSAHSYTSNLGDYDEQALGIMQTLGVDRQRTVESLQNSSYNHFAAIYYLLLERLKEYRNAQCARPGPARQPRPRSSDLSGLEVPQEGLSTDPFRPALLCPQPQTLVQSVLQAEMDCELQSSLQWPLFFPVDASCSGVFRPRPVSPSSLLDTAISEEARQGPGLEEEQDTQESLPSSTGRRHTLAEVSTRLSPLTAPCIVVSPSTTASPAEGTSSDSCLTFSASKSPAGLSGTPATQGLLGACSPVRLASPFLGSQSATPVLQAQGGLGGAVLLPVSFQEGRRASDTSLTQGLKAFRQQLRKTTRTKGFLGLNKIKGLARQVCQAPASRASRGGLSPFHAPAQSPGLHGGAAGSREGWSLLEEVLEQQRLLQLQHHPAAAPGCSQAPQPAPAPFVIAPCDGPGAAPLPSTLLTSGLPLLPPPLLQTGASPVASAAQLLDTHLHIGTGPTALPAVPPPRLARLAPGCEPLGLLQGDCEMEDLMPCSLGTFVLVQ

[13] = biological target: CK1γ1(h) (Homo sapiens, UniProt Q9HCP0); experiment: Kinase Profiling Assay; assay type: biochemical; settings: 100 μM
Sequence of CK1γ1(h) (Q9HCP0 whole entry): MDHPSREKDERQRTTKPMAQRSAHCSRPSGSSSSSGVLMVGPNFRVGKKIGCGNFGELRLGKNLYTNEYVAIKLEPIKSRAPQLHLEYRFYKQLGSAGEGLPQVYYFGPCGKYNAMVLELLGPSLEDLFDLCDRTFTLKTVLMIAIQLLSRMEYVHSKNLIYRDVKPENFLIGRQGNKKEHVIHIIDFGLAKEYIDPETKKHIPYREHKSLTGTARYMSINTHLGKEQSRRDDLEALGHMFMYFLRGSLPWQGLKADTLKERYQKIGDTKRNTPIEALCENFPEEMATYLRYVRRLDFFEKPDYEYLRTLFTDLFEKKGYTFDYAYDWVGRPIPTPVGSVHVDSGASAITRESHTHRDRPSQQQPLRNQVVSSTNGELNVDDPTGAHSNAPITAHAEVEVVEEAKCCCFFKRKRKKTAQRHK

Sequence of MKK7β(h) (O14733 whole entry): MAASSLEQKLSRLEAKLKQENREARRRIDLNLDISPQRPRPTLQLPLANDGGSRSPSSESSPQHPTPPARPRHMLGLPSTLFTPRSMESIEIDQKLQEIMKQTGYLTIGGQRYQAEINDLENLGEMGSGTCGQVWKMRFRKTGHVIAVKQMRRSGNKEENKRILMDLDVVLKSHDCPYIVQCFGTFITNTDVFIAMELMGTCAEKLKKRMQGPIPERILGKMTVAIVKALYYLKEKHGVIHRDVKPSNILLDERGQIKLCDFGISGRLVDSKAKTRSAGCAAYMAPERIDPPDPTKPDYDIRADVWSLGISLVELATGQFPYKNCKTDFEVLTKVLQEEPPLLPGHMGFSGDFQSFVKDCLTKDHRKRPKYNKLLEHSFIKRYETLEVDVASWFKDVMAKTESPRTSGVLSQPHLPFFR

Work on H-YARAAARQARAKALARQLGVAA-OH [MMI-0100] yielded an activity at 100 µM [1] of 137% and a viability at 2 h, 500 µM [2] of 76%.
For “HRRIKAWLKKIKALARQLGVAA (Mammalian) [MMI-0500]”, the “% activity” value [3] was 16%, the “% activity” value [4] was 61% and the “% activity” value [5] was 40%. For the same substance, the “% activity” value [6] was 33%, the “% activity” value [7] was 359% and the “% activity” value [8] was 60%. The “% activity” value [9] was 110%, the “% activity” value [10] was 122% and the “% activity” value [11] was 48%. The “% activity” value [12] was 40%.
With “YARAAARQARAKALNRQLGVA (Mammalian) [MMI-0200]” the “% activity” value [13] was 98%.
